These results are taken from IntAct's records for PubMed 14596919.

B1: Disabled homolog 2 (Mus musculus), P98078 (parent)
chain: MSNEVETSTTNGQPDQQAAPKAPSKKEKKKGSEKTDEYLLARFKGDGVKYKAKLIGIDDVPDARGDKMSQDSMMKLKGMAAAGRSQGQHKQRIWVNISLSGIKIIDEKTGVIEHEHPVNKISFIARDVTDNRAFGYVCGGEGQHQFFAIKTGQQAEPLVVDLKDLFQVIYNVKKKEEDKKKVEEANKAEENGSEALMTLDDQANKLKLGVDQMDLFGDMSTPPDLNSPTESKDILLVDLNSEIDTNQNSLRENPFLTNGVTSCSLPRPKPQASFLPENAFSANLNFFPTPNPDPFRDDPFAQPDQSAPSSFDSLTSPDQKKASLSSSSTPQSKGPLNGDTDYFGQQFDQLSNRTGKPEAQGGPWPYPSSQTQQAVRTQNGVSEREQNGFHIKSSPNPFVGSPPKGLSVPNGVKQDLESSVQSSAHDSIAIIPPPQSTKPGRGRRTAKSSANDLLASDIFASEPPGQMSPTGQPAVPQSNFLDLFKGNAPAPVGPLVGLGTVPVTPPQAGPWTPVVYSPSTTVVPGAIISGQPPSFRQPLVFGTTPAVQVWNQSPSFATPASPPPPTVWCPTTSVAPNAWSSTSPLGNPFQSNNIFPPPTMSTQSSPQPMMSSVLATPPQPPPRNGPLKDIPSDAFTGLDPLGDKEVKEVKEMFKDFQLRQPPLVPSRKGETPPSGTSSAFSSYFNNKVGIPQEHVDHDDFDANQLLNKINEPPKPAPRQGVLLGTKSADNSLENPFSKGFSSSNPSVVSQPASSDPHRSPFGNPFA

Variants of B1 are the subject of one assay. As to conditions: with sh3k1_human SH3KBP1, Q96B97.
sh3k1_human SH3KBP1, Q96B97, sequence (Q96B97 whole entry): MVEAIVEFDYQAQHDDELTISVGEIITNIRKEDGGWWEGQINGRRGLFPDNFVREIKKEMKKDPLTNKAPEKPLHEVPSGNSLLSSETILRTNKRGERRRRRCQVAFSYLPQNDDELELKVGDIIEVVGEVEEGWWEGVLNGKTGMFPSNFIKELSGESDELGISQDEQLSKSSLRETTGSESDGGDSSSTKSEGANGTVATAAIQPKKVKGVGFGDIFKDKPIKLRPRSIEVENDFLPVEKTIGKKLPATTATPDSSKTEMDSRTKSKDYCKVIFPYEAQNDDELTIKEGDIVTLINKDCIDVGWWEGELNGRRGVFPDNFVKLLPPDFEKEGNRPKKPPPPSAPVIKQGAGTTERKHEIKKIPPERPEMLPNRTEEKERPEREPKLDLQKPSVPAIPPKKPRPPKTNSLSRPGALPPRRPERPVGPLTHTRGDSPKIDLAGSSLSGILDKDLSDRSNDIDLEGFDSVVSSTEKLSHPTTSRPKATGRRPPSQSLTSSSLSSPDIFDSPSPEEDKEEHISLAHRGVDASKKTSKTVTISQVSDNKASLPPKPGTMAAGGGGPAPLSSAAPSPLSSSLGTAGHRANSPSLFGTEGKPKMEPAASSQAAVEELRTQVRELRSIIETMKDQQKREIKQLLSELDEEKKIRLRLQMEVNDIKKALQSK
Take R718A: the “effect of a mutation on the interaction” value was “disrupting interaction”.

The variants in the next assay derive from B1. The settings on record: with sh3k1_human SH3KBP1, Q96B97. The source holds these as a separate data set.
Take R718A: the “effect of a mutation on the interaction” value was “decreasing interaction”.
